Experimental data from the DeepSol protein solubility set.

Test: soluble on expression in E. coli; label from the status in PepcDB or PDB records

| Sequence | soluble on expression in E. coli |
| --- | --- |
| MADPNGFLNYPRNDNPYRELAERIKDFAELQVPLSTEERQKQAARCMHCDVPFCHQGIFYGGKRAVSGCPNDNHIPEWNDLIYRGLQRKAYERLILTNPFPEFTGRVCPAPCEKSCAEALNGAGVTIKDNERFLGDLGNDEGWVAEIGKAAEPTGYKIAIIGSGPAGLSAAWRLNQLGHSVTVFEKSDRLGGLLMYGIPNMKLDKKVVQKRIDLMTELGVTFVTNTEIGKTISYEDLSVNFDRIILAIGAGIPRDLNISGREAVGIRFAIDFLTETTKTVLEEGEDNISQSLKGKKVVVIGGGDTGNDCIGTAVRLGAASVSQLEITPSLPTDRLDNNPWPEWPMTLRAGYGQKEAEFVGNTDLITYQMTATAFQTNAEGQLTGLKVAKVGPDFKALEGTEQVIEADLVLLAMGFVGTDTGLLDKFGIQEIYDDYRTNNDKVLVAGDARRGPSLVIWAIREGRKTAEIVDEQLIKVATALEHHHHHH | soluble |
| IETNRRERRIKRNKYLLSLYNNTNIKTSNFIYPLFIHEEDVEKKHTQLEGIYTYNVDGIIKEIEECIKLNIHHFMFFPVIREENKTVYCEESYNENSYFCKTISRIKEKFSDDIIVYTDVALDPYNIYGHDGIYDDNKKEILNDITVHTLVKQSLCLAKSGADVVCPSDSMDKRIELIRKNLDFHNFRDILILSYTCKYSSSMYKPFRSILNSNILKNFVKNKQSYQHDFNSYMDLNNVDKHIIEGADIIMVKPSMFYLDIIHKIKNRIKDDVQIPIAVYNVSGEYMMIKNYVKYLNEDINYENEIITELFKSYLRAGANIIITYFAKQYGLYMKKLYDKNIIIDDNSNNNFNIELTL | soluble |
| GPGSMALVADVPPPTATSMAKLFQESSFDPVTTFEAVWLPPRVPAAPPTAGASEPVPFAAVVDVLADISATGSRLECLKQLTFLLLAVIERCPEDLVPVMYLVINKHAPQHEGVELGIGDAVLVKAVAECCGMTETRAKEEYRQSGDLAEIAQMHKQKQGTLMKPKPLSARSVFKTYKEIAMMSGRDVMRRRSDLIKGLLRDAQGPEVNLIVRGLQQKMRIGLAEPSALAAVGYAFALHFLGGAQMHKMDEVQLQTLLNTGADSLARIFYEVPSLDVVLSAVLANGFMTLVPGSSIAKQYAKDLSIRPGLPVKPQLAYPTSSITVILDRLQGKKFTSEYKYDGERAQIHYDKDKGFHIFSRNSETHTGKYPDVISMLPKVFDPVEVQSFILDSEVVAVHSETGALQAFQVLQHRGRKNIAEEDVSIPVCVFVFDILYFNGEPQLNKTLQQRRELLWRCIHPLPAKLSFATHLDSEKVEDVQTFLERSIADGCEGLMVKTLEEEANYTPAKRSHYWLKLKKDYMDGVTDTLDLVPIAAFYGKGKRTGVFGGFLLACYDPKADEYQSICKIGTGFQDEELEKLTQSLKPFVVDEKPRYYRAGGEEPDVWLTEAQVWEVKAADLSVSPVHQAAVGLVDPDKGIALRFPRYLRQREDKKPADATNARQVADMYKAQSLAAEHDANGDAE | not soluble |
| MASSLNEDPEGSRITYVKGDLFACPKTDSLAHCISEDCRMGAGIAVLFKKKFGGVQELLNQQKKSGEVAVLKRDGRYIYYLITKKRASHKPTYENLQKSLEAMKSHCLKNGVTDLSMPRIGCGLDRLQWENVSAMIEEVFEATDIKITVYTL | soluble |
| MHVLTLDLAPVTPKDAPLLHRVFHLSPSYFALIGMELPTLEDVVRDLQTLEVDPRRRAFLLFLGQEPVGYLDAKLGYPEAEDATLSLLLIREDHQGRGLGRQALERFAAGLDGVRRLYAVVYGHNPKAKAFFQAQGFRYVK | not soluble |
| MSLKINNLVDLHCHILPAIDDGSPSLEASLELARQAVADGIRYILATPHHMDRHYLNHAGDVVAAVEAFQAELDVNDIPLTIFPGQEVHLNGQLMEKVDDLLSIDTGRHYLLLELPHEMVPSYLDEMIFQLSCEGITPVIAHPERNAQIIAEPQRLYKLAEDGVLAQVTATSLVGTFGEQVQRTAKEFVKCGLVQVVASDAHTLKNRGFAMTKAYQVLNEMDSKYPERFATNARDLLNGEQIEMGQIEIPRKQRKHWLFEGHHHHHH | soluble |
| MGSDKIHHHHHHMGIMENPLIKPAALENTHQDGPHPQAEEPYYLPFGDEVSIFTQCHRRHLAVMLKGPTGCGKTRFVEHMAWRMKRPLIIVSCHDDLTAADLVGRFLIRDNATIWQDGPLTRAVRVGAICYLDEVVEARQDAVVVIHPLTDYRRVLPIDKTGELIEATPGFQLVISYNPGYQHVTKDLKPSTRQRFVALDFDFPPPEREAEIVIHESGAQPAVAYDLVALGGRIRGLADRGLAEVPSTRLLVATARLIANGIPPRLACHVALVSPLSDDPALVAAMRDLVDATLLD | not soluble |
| MYDKLLPMERIHIEVFEPFNGEAIEGKYSYVLLCRDYRSSFMWLLPLKSTKFKHLIPVVSSLFLTFARVPIFVTSSTLDKDDLYDICEEIASKYGLRIGLGLKSSARFHTGGILCIQYALNSYKKECLADWGKCLRYGPYRFNRRRNKRTKRK | soluble |
| MGSSHHHHHHSSGRENLYFQGHMTLTSIGPANRMARSAETHPLTWRLREDAQPVWLEEYQSKDGYAAARKALTQMAQDDIVQTVKDSGLKGRGGAGFPTGVKWGLMPKDESLNIRYLLCNADEMEPNTWKDRMLMEQLPHLLVEGMLISARALKAYRGYIFLRGEYVDAARNLNRAIDEAKAAGLLGKNILGSGFDFELFVHTGAGRYICGEETALINSLEGRRANPRSKPPFPAAVGVWGKPTCVNNVETLCNVPAIVGNGVDWYKTLARPGSEDMGTKLMGFSGKVKNPGLWELPFGVSARELFEDYAGGMRDGFQLKAWQPGGAGTGFLLPEHLDAQMFAGGIAKVGTRMGTGLAMAVDDSINMVSLLRNMEEFFARESCGWCTPCRDGLPWSVKLLRALERGEGQPGDLETLEQLVNFLGPGKTFCAHAPGAVEPLGSALKYFRAEFEAGISRQPSAAPRPATVGA | soluble |
| MKKRYKNPEKSGSCGNFIQAIKMTDKVQPLESLSKKPEEPKIVVNLRRIKRKIMVMSGKGGVGKSTVAANLAVGLALRGHRVGLLDCDIHGPTVPTIFGLESARPGVSEEGILPIEVLPNLSVMSIGFLLENKDSPIIWRGPAKMGAIKQFLEEVFWGALDFLIIDLPPGTGDEPLSVAQLIPNCDGSVLVTTPQDVALISVRKSITFSEKLNVPIIGLVDNMHGLICPHCGKPIEVFGSGGVEKASKDFNIPILARLPIEPGVAEMEDRGTVVQDQLKHGTEWQKNFDNVVDAVEKILEKELEHHHHHH | soluble |
| MSLAIQMTTKTTYQWPQSKDIYPYRPGRFDAPKHWRYNLRSFLNRGSIRRFEQFINQHPFLIDIFNTHLDYSYPVACRFLDKRFNASQRFHAVCENLLFLPEKLTALSTPLWEKPLSFGEVIPDFEMTLSMTTHQPMEGYWVLELWHKPRNELVYLLTFAKLGDALLIAVVQGPNFEGSKEMVKQLTKLCHGLRPAYLMVETMKSLTKILGYNKLLGIPQKYQNKSRFIQSKQYTVDYDAIFGESGGELKDYWELPLEMDRNLDDIPSKKRSMYRKRYAMLDDLAKVIEEKLGLEGHHHHHH | not soluble |
| MSKIRVHEYAKKHNISSKDLMTKLKEMNIEVSNHMTMLDDEVVNKLDNEYQAEKPSVADEFEVEEKVVRSKKNSNKKKKKGKGNEDKRQENFAGRQQTQTVETPDKITFSGSLTVGDLAKKLSKEPSEIIKKLFMLGIMATINQDLDKDTIELIANDYGIEVEEEVIVSETEFETFIDEQDDEENLKERPAVVTIMGHVDHGKTTLLDSIRNSKVTAGEAGGITQHIGAYQVELNDKKITFLDTPGHAAFTTMRARGAQVTDITIIVVAADDGVMPQTVEAINHAKAAGVPIIVAVNKMDKPAANPDRVMQELTEYELVPEAWGGDTIFVPISAIQGEGIDNLLEMILLISEVEEYKANPNRYATGTVIEAQLDKGKGTIATLLVQNGTLRVGDPIVVGTSFGRVRAMVSDIGRRVKVAGPSTPVEITGLNEVPQAGDRFMAFADEKKARQIGESRAQEALLAQRGEKSKLSLEDLFQQIQEGDVKEINLIVKADVQGSVEAMAASLRKIDVEGVKVKIIHTGVGAITESDIILASASNAIVIGFNVRPDVNAKRTAELENVDIRLHRIIYKVIEEIEAAMQGMLDPEFEEKVIGQAEVRQTFKVTKVGTIAGCYVTDGKITRDSGVRIIRDGVVIFEGQLDTLKRFKDDVKEVAQNYECGITIERYNDLKEGDIIEAYIMEEVKR | not soluble |
| MSTLIECGASPFIPGFALKDVRLENGLTVRVAIGGSGSPLVLLHGHPQNHTTWRKVAPTLAQNHTVILPDLRGYGDSDKPTSDPAHRTYSKRTMAQDIVMLMDALGFSRFAFVGHDRGGRVGHRLALDYPDRVTCCTFIDIAPTATMYALTDKSFATRYFWWFFLIQPFPLPETMIAHDPAFFLRKHISGQLKIEGATSQEAFNEYLRCYQNPEMIHAICEDYRAAATIDLDDDAADTSARIRCPLQLLWGGLGTVGQLYNVVGTWKEKALNVQGEALPCGHSPQEECPEYFIQKLQSFLHSVL | soluble |
| MGSDKIHHHHHHMKIKAIITGATGMVGEGVMHECLLNPDVEEVLIINRKPSGFTHAKLKEIIHTDFFNLAPVEQQLAGYNACYFCLGVSSIGMNEADYTKMTYTLTMHVAETLSRLNKDMTFCYVSGASTDSTEKGKSMWARVKGKTENDLTRLPFKDVYNFRPGYMQPTPGLKNTQKYYTYMSWMYPFLKLVFKNYVSTLKDVGLAMIRVTLFGHNKQVLEVPDIKALAKKTQFV | not soluble |
| MAKYIEIANTLRTSISNHEYKNNDPFPDQQALSKKFSTSRMTIQKALNILKTEGLIYSKQGSGTFVSSNADLIEQTDLEINQYIGTTDLFGKTHKINSKIIKFTIRYPDKSEQNALRISKKDLIYDITRLRIVDEEPYVLEYTKMPVKVIPGISDDILKKSIYHYIKSDLNLKIGSAFRKIRADKPNLFDKKFLNCKNEDPILEITQTAFLNSDIPFEFSRVRYRYDKGNMVVFVKSSFER | not soluble |
| MGHHHHHHSHMLPVELVRHDVKKTDETSQVELMLQVDPDLFWFNGHFTGQPLLPGVAQLDWVMHYATTVLAQGWTFLSIENIKFQQPILPGKTLRLVLIWHAGKQSLTFSYSILEGDTERTASSGKIKLTPIMEDNPCQ | soluble |
| GMMTDEARAKLAAIPMLAGYTGPLERLGGLTNLVFRAGDLCLRIPGKGTEEYINRANEAVAAREAAKAGVSPEVLHVDPATGVMVTRYIAGAQTMSPEKFKTRPGSPARAGEAFRKLHGSGAVFPFRFELFAMIDDYLKVLSTKNVTLPAGYHDVVREAGGVRSALAAHPLPLAACHCDPLCENFLDTGERMWIVDWEYSGMNDPLWDLGDLSVEGKFNANQDEELMRAYFGGEARPAERGRVVIYKAMCDLLWTLWGLIQLANDNPVDDFRAYADGRFARCKALMETPEFSRHLAAVRMG | soluble |
| MIFERIKSEGLAHLSYFVGSGNEAIVIDPRRDCQIYFDIARREGMKIKYIFETHRNEDYVIGSLELKELTDAEIYHGKGVDFKYGIFVSDGQEFNFGSMKLTALHTPGHTDESMSYALTYPESGKAPLMVFTGDALFVGDVGRTDLYGPEEIPRMAANLYESIFNKILPLGDGVILCPAHGAGSLCGGAISKREYSTLGLERIQNPALQRTDKEEFIKFKLEEKLEFPPYFKKMEQYNLQGPPLLKGLPVPELLFPKEFVKEMEKGAMVVDTRMPHSFGGAHIKGSYGIWLKGLPYYAGWVLPYDKPILLVLEEKDQLETAVSYLVRIGYDSIAGFLNGGISSWYMKALPVESLNLISVQSLKDKIEKNEEMVILDVRRDEEWEKGHIEGARHVYVGHLEENLDKVPRNSPIIVYCDSSRRSNIAASILKKKGYDMVYNVLGSMTAWKNAGYKVVKLEHHHHHH | soluble |
| MRYFLCPGKTDMRKGMNSLCGVIHNKMGYDVRLGDVFIFINRQRTTMKLLHAEDGDLVLYIKRLEEGTFRLPEYDQQSRSYPMEWRDLVMMVKGINNGSAKRLKRLKALRKSDI | not soluble |
